Reference: patent US20190389958A1, “ANTI-CXCR4 ANTIBODIES” (MSM Protein Technologies, Inc., priority 2017, published 2019)

B1: V62.1-R108H-m47-m38: matured anti-CXCR4 antibody; LCVR SEQ ID NO 14, HCVR SEQ ID NO 18 (antibody, V domains shown)
VH: EVQLLESGGGLVQPGGSLRLSCAASGFTFSSYAMSWVRQAPGKGLEWVSAISGSGGTRYADSVKGRFTISRDNSKNTLYLQMNSLRAEDTAVYYCARQGKTRVYGYHWHGYGSTHALDYWGQGTLVTVSS
VL: EIVLTQSPGTLSLSPGERATLSCRASQSVSSSYLAWYQQKPGQAPRLLIYGASSRATGIPDRFSGSGSGTDFTLTISRLEPEDFAVYYCQQWSSDSVTFGQGTKVEIKRT
modifications: heavy chain variable region HCVR, variant 4; light chain variable region LCVR, variant 2
B2: V62.1-R108H-m43-m38: matured anti-CXCR4 antibody; LCVR SEQ ID NO 14, HCVR SEQ ID NO 17 (antibody, V domains shown)
VH: EVQLLESGGGLVQPGGSLRLSCAASGFTFSSYAMSWVRQAPGKGLEWVSAISGSGGGSTRYADSVKGRFTISRDNSKNTLYLQMNSLRAEDTAVYYCARQGKTRVYGYHWHGYGSTHALDYWGQGTLVTVSS
VL: B1 VL
modifications: heavy chain variable region HCVR, variant 3; light chain variable region LCVR, variant 2
B3: V62.1-R108H-m80: matured anti-CXCR4 antibody; LCVR SEQ ID NO 13, HCVR SEQ ID NO 19 (antibody, V domains shown)
VH: EVQLLESGGGLVQPGGSLRLSCAASGFTISPYSITWVRQAPGKGLEWVSQINSYNGKTYYADSVKGRFTISRDNSKNTLYLQMNSLRAEDTAVYYCARQGKTRVYGYHWHGYGSTHALDYWGQGTLVTVSS
VL: EIVLTQSPGTLSLSPGERATLSCRASQSVSSSYLAWYQQKPGQAPRLLIYGASSRATGIPDRFSGSGSGTDFTLTISRLEPEDFAVYYCQQSDYSYPFTFGQGTKVEIKRT
modifications: heavy chain variable region HCVR, variant 5; light chain variable region LCVR, variant 1

Assays:
[1] = molecular target: T1, hCCR3 (Homo sapiens, UniProt P51677); experiment: Specificity for CXCR4, flow cytometry on GPCR over-expressing cells (Example 6); type: binding; settings: cell line hCCR3; test IgG at 100 nM
T1 construct: expressed in transfected cells
T1 sequence (P51677 1-355): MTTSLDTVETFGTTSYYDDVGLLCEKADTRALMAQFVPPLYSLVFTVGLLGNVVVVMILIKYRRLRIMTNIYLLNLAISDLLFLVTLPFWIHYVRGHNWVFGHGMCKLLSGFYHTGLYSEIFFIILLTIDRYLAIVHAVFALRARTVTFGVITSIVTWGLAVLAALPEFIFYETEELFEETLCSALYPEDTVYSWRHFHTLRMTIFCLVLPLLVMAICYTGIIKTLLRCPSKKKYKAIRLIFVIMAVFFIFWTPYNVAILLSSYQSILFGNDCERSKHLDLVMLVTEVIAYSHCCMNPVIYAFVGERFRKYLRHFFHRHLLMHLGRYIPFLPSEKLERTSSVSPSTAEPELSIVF
Procedure: (§1) Cells over-expressing different GPCRs other than CXCR4 and several lines transfected to over-express CXCR4 (R1610-hCXCR4, Cf2Th-hCXCR4 and CHO-hCXCR4) were compared. Cultures were incubated with a test IgG at 100 nM in FACS buffer for 40 min at 4° C. Thereafter, cells were washed twice, stained with anti-human-Fc antibody-PE conjugate (Jackson Immunoresearch Laboratories Inc., West Grove, Pa.), washed twice in FACS buffer and then transferred to FIX buffer. Fluorescence intensities were measured by GUAVA PCA-96 at 425V (in triplicate).
(§2) The expression of GPCRs other than CXCR4 was confirmed using commercially available antibodies (positive controls). For example, a commercial anti-CXCR1 antibody was used as a positive control for confirming the expression of CXCR1 on the CXCR1-transfected CHO cells.

[2] = system: RA1 cells; experiment: Antibody-dependent cell-mediated cytotoxicity (ADCC), LDH release (Example 10); type: cell-based, human; settings: E:T ratio 20:1
Procedure: ADCC was measured with RA1 cells as the target cells (T) and using the CytoTox 96® Non-Radioactive Cytotoxicity Assay (Promega Corp., Fitchburg, Wis.)), which assay measures lactate dehydrogenase (LDH) release. A round-bottom 96-well culture plate was set up with the following control and experimental wells (100 microliter final volumes):
a. RA1 cells (for target cell spontaneous LDH release control) b. RA1 cells (for target cell maximum LDH release control) c. Culture medium (RPMI 1640 Medium (1X) without phenol red) used for volume correction control d. Culture medium (for culture medium background control) e. RA1 plus effector cells (E) (for target plus effector cell spontaneous LDH release control) f. Experimental wells with effector and target cells (10^5) with serial dilutions of each test IgG or without test IgG.
The plates were centrifuged at 1600 rpm for 2 minutes and incubated at 37° C. for 4 hours. One hour prior to supernatant harvest, 20 microliters of Lysis Solution (10×) were added to the conditions b) and c). The plates were centrifuged at 1600 rpm for 2 minutes, and 50 microliters of the supernatant from each well of the assay plates were transferred to corresponding wells of a flat-bottom 96-well enzymatic assay plate. Substrate Mix (50 microliters) was added to each well of the latter plate, and the plate (protected from light) was incubated for 30 minutes at room temperature. Finally, 50 microliters of Stop Solution were added to each well, and absorbance (OD values) was measured at 490 nm. Each condition was tested in triplicates.
Preliminary experiments had been conducted in order to determine the optimal E:T ratio. The data shown below were obtained at a 20:1 E:T ratio with 10^5 RA1 target cells. The effector cells used in this study were prepared as follows: human peripheral blood mononuclear cells (PBMCs) obtained from a healthy donor were isolated by means of density gradient centrifugation using Lymphocyte Separation Medium (ref. J15-004, Invitrogen Corp., Carlsbad, Calif.). PBMCs at 2×10^6 per mL were cultured for two days in RPMI 1640 with 10% FCS, penicillin/streptomycin and 100 units per mL of human recombinant IL-2 (obtained from Roussel-Uclaf) in a 37° C. humidified incubator (5% CO2).
ADCC percentages obtained at different concentrations of test IgGs were calculated with the formula % ADCC=(f−e)/(b−a)×100, i.e., % ADCC=(OD of Target+Effector cells +/−Test Mab −OD of Spontaneous Release of Target+Effector cells)/(OD Maximal Release Target cells −OD Spontaneous Release of Target cells)×100.

[3] = molecular target: T2, hCCR7 (Homo sapiens, UniProt P32248); experiment: Specificity for CXCR4, flow cytometry on GPCR over-expressing cells (Example 6); type: binding; settings: cell line hCCR7; test IgG at 100 nM
T2 construct: expressed in transfected cells
T2 sequence (P32248 25-378): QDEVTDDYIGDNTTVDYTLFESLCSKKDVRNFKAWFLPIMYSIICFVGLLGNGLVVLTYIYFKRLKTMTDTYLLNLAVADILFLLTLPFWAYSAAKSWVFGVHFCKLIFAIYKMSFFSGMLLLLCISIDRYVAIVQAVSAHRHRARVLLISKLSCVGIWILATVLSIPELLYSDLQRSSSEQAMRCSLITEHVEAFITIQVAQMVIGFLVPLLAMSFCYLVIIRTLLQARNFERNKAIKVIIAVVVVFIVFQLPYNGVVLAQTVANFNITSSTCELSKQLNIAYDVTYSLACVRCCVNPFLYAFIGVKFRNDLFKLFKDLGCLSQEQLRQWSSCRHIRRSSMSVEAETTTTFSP
Procedure: as §1, §2

Row | MFI [1] | MFI [3] | Molecule | ADCC percentage ([2]; 0.0001 μg/mL) [%] | ADCC percentage ([2]; 0.001 μg/mL) [%] | ADCC percentage ([2]; 0.01 μg/mL) [%] | ADCC percentage ([2]; 0.1 μg/mL) [%] | ADCC percentage ([2]; 1 μg/mL) [%]
1 | 40 |  | B1 | 14 | 36 | 50 | 51 | 55
2 |  |  | B2 | 8 | 19 | 40 | 42 | 54
3 |  | 25 | B3 | 9 | 16 | 45 | 59 | 55
